Experimental data as given in CN116724055A (CANTARGIA S R L, dated 2023).

Experiments:
[1] = biological target: T1, 重组mfIL1RAP aa21-367 (食蟹猴 (Macaca fascicularis), UniProt A0A2K5X5J5 21-367); assay: binding ELISA, coated mfIL1RAP aa21-367
T1 construct: also called 食蟹猴(cyno)IL1RAP
T1 sequence: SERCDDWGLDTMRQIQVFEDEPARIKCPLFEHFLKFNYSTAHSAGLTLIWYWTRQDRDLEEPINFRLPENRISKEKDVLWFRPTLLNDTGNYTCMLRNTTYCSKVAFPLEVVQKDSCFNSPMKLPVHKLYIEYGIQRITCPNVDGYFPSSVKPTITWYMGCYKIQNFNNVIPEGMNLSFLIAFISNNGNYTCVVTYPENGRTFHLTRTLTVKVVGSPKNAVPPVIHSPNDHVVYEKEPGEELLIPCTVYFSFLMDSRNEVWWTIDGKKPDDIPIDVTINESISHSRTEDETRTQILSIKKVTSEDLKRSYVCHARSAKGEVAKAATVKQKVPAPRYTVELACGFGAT

[2] = biological target: T2, 大鼠IL1RAP (褐家鼠 (Rattus norvegicus), UniProt Q63621 21-367, limits assumed); assay: ELISA on coated IL1RAP orthologs
T2 construct: also called rnIL1RAP
T2 sequence (looked up): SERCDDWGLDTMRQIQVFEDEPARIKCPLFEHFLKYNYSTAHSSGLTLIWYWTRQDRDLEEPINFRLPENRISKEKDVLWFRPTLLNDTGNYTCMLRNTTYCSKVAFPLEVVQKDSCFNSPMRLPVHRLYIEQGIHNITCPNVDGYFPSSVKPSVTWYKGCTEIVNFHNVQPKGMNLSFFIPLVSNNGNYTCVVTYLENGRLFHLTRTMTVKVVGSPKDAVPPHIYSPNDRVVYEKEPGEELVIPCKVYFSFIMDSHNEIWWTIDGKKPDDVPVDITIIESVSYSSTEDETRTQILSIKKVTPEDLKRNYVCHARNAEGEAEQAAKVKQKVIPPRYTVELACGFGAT

[3] = biological target: T3, 小鼠IL1RAP (小家鼠 (Mus musculus), UniProt Q61730 21-367, limits assumed); assay: ELISA on coated IL1RAP orthologs
T3 construct: also called mIL1RAP
T3 sequence (looked up): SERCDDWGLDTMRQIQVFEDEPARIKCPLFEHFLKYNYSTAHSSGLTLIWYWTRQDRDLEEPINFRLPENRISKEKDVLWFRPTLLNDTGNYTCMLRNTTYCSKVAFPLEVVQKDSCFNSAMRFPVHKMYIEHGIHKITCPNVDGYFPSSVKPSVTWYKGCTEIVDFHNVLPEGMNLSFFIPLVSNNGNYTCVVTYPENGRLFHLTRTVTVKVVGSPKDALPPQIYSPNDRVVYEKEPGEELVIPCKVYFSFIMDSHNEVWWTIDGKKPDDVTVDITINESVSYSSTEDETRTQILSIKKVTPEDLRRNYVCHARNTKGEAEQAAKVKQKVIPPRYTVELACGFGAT

[4] = biological target: T1, 重组mfIL1RAP aa21-367; assay: ELISA on coated IL1RAP orthologs
[5] = biological target: T4, 细胞膜上的人IL1RAP (人, UniProt Q9NPH3 21-570); assay: cell-based or functional assay
T4 sequence (looked up): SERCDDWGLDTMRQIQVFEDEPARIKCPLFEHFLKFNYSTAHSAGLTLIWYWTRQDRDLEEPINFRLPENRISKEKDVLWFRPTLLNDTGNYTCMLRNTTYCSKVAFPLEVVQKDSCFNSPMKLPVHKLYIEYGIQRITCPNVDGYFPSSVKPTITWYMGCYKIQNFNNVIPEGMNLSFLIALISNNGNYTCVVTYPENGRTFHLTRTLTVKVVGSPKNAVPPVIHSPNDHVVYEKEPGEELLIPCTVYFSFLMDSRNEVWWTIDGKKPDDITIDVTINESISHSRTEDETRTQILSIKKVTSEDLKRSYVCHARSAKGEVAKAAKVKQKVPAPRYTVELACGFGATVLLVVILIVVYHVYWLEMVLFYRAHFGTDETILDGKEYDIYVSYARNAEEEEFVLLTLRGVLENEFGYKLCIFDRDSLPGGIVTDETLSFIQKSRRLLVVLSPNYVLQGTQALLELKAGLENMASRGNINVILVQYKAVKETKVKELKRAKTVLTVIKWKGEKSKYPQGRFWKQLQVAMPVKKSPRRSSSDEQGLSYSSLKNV

B1: h48D2 VH5:VL5 (antibody, human IgG1, kappa, L234A L235A)
heavy: not shown
light: APVLTQSPATLEASVGDRVTITCQASESISTALAWYQQKPGQPPKLLIYKASTLPSGVPSRFSGSGSGTEFTLTISDLESDDAATYYCQQGFSSGNVHNAFGGGTEVVVKRTVAAPSVFIFPPSDEQLKSGTASVVCLLNNFYPREAKVQWKVDNALQSGNSQESVTEQDSKDSTYSLSSTLTLSKADYEKHKVYACEVTHQGLSSPVTKSFNRGEC
[1]
  binding result: binds

B2: h48D2 VH5.GL:VL5.GL (antibody, human IgG1, kappa, L234A L235A)
heavy: not shown
light: DIQMTQSPSTLSASVGDRVTITCQASESISTALAWYQQKPGQPPKLLIYKASTLPSGVPSRFSGSGSGTEFTLTISDLESDDAATYYCQQGFSSGNVHNAFGGGTEVVVKRTVAAPSVFIFPPSDEQLKSGTASVVCLLNNFYPREAKVQWKVDNALQSGNSQESVTEQDSKDSTYSLSSTLTLSKADYEKHKVYACEVTHQGLSSPVTKSFNRGEC
notes: humanised and de-immunised variant
[2]
  binding result: no binding
[3]
  binding result: no binding

B3: 嵌合48D2 (antibody, V domains shown)
VH: QEQLEESGGGLVKPGGSLTLTCTVSGPSLSHFDITWVRQAPGSGLEWIGTISPGVSTYYASWAKSRSTITSNTNLNTVTLKMTSLTAADTATYFCARGGVGSSWKAFDLWGPGTLVTISS
VL: APVLTQTPASVEVAVGGTVTIKCQASESISTALAWYQQKPGQPPKLLIYKASTLPSGVSSRFKGSGSGTEFALTISDLECDDAATYYCQQGFSSGNVHNAFGGGTEVVVK
notes: chimeric rabbit/human IgG1; also called ch48D2; 48D2嵌合(ch)兔/人抗人IL1RAP
[2]
  binding result: no binding (tested: 4000ng/ml)
[3]
  binding result: no binding (tested: 4000ng/ml)
[4]
  binding result: binds
[5]
  IC50, inhibition of IL-1α signalling, HEK-Blue assay (SEAP, OD 620nM): 1.92 nM
  IC50, inhibition of IL-1β signalling, HEK-Blue assay (SEAP, OD 620nM): 0.7 nM
  IC50, inhibition of IL-33 signalling, HEK-Blue assay (SEAP, OD 620nM): 2.92 nM
  IC50, inhibition of IL-36α signalling, HEK-Blue assay (SEAP, OD 620nM): 0.0083 nM
  IC50, inhibition of IL-36β signalling, HEK-Blue assay (SEAP, OD 620nM): 0.0081 nM
  IC50, inhibition of IL-36γ signalling, HEK-Blue assay (SEAP, OD 620nM): 0.0111 nM

B4: h48D2 VH5.GL:VL4 (antibody, human IgG1, kappa, L234A L235A, V domains shown)
VH: QEQLEESGGGLVKPGGTLSLTCTVSGPSLSHFDITWIRQPPGKGLEWIGTISPGVSTYYASWAKSRVTISVDTSLNTVSLKLSSVTAADTATYFCARGGVGSSWKAFDLWGPGTLVTISS
VL: ELVMTQSPSSVSASVGDRVTITCQASESISTALAWYQQKPGKAPKLLIYKASTLPSGVPSRFSGSGSGTDFTLTINSLQPEDFATYYCQQGFSSGNVHNAFGGGTKVEIKR
notes: also called 48D2变体VH5.GL:VL4; 人源化和去免疫化48D2变体VH5.GL:VL4
[2]
  binding result: no binding
[3]
  binding result: no binding

B5: h48D2 VH5:VL4 (antibody, human IgG1, kappa, L234A L235A, V domains shown)
VH: QEQLEESGGGLVKPGGTLSLTCTVSGPSLSHFDITWIRQAPGSGLEWIGTISPGVSTYYASWAKSRVTISVDTSLNTVSLKLSSVTAADTATYFCARGGVGSSWKAFDLWGPGTLVTISS
VL: ELVMTQSPSSVSASVGDRVTITCQASESISTALAWYQQKPGKAPKLLIYKASTLPSGVPSRFSGSGSGTDFTLTINSLQPEDFATYYCQQGFSSGNVHNAFGGGTKVEIKR
notes: also called 人源化48D2变体VH5:VL4
[1]
  binding result: binds
